In patent JP2011512120A (dated 2011) one finds Kd data, which are given here for four molecules.

For orientation: Kd means the equilibrium constant for the complex coming apart. Higher therefore signals lower affinity.

To fix the notation:
B1: EV1003 (antibody, V domains shown)
VH: LVQLVQSEAEVKKPGASVRISCRTSGYIFPTFALHWVRQAPGQSLEWVGSINTASGKTKFSTKFQDRLTLSSNTSATTVYMDLSGLTLDDTALYYCARDRFQNIMATILDVWGQGTLVTVSS
VL: DIVLTQSPGTLSLSPGERVTVSCRASHRVSSNYLAWYQQRPGQSPRLLIFGASNRATGVPDRFSGSGSGTDFALTISRLEPDDFAVYYCQQYASSPVTFGGGTKLEIK
B2: EV1018 (antibody, V domains shown)
VH: QVQLVESGGGMVQPGMPLRLSCVASGFTFSSYGMHWVRQAPGKGLEWVALTYHHGNRKFYADSVRGRFTISRDNSNNTLYLQMTSLRAEDTAVYFCARESMGAINDNWGQGTLVIVSS
VL: QSALTQETSVSGTVGQKVTLSCIGNNNNIGSHAVGWYQQISRGAPKMVLFGRSPPSGVPDRFSGSKSGTTASLIISGLQPEDEADYYCSTWDSSLSAVVFGGGTKLTVLR
B3: EV1019 (antibody, V domains shown)
VH: QAQLVESGGGVVKPGGSLRLSCISSKFTFSSHAMHWVRQAPGKGLEWVAVIWHDGSKKYYADSVKGRFSVSRDNSKNTLFLQMDSLRAEDTAVYFCGKEWVGGTCDSWGQGTLVIVSS
VL: QPALTQEASVSGTVGQTVTLLCSGNSSNIGSYAVGWYQQISRGAPKIVVFGKSPASGIPDRFSGSKSGTTASLLVSGLQPEDEADYYCSTWDSRLSAVLFGGGTKLTVLR
B4: EV1007 (antibody, V domains shown)
VH: QVHLVQSGSELKKPGASVKVSCKASGYSFSRYGIKWVRQAPGQGLEWMGWINTRSGVPAYAQGFTGRFVFSLDTSVDTAFLEISSLKTEDTGIYYCATRPPRFYDKTEYWEDGFDVWGRGTLVTVSS
VL: QSVLTQPPSASGTPGQSVNISCSGSSSNIGNSYVYWYQQLPGTAPKLLIYRNNRRPSGVPDRFSGSKSDTSASLAISGLRSEDEADYYCATWDDSLSGRLFGGGTKLTVL

The first experiment has as its target 酵母由来組換えhGM−CSF(Leukine Berlex) (human). Put plainly: SPR (Biacore), antibody captured through protein G on the chip, rhGM-CSF injected. For orientation: In SPR one partner is held on a chip, and binding of the other changes the refractive index at the surface.
Molecule B1 came in with a Kd of 0.23 nM.

Molecule B2 registered a dissociation constant Kd of 0.23 nM.

B3 gave a dissociation constant (Kd) of 0.36 nM.

For the molecule B4, the Kd came out at 1.2 nM.

A further experiment addresses 大腸菌由来組換えhGM−CSF(Peprotech) (human). Described as above.
For the molecule B1, the Kd turned out to be 0.095 nM. In other words, the picomolar range.

In turn, B2 had a Kd of 0.15 nM.

B3 gave a dissociation constant (Kd) of 0.15 nM. This counts as sub-nanomolar.

As to B4, the Kd came to 0.93 nM.
